Paper PMC5663869

Columns and labels:
BAZ2B PHD–BRD (human) [1] = molecular target: BAZ2B PHD–BRD (human) (UniProt Q9UIF8); assay: ITC; iTC200, 25 °C; 150–260 μM sample, 1.5–4 mM titrant; one-site binding model; n = 4
BAZ2B PHD domain (human) = BAZ2B PHD domain (human) (UniProt Q9UIF8); assay: as above
BAZ2B PHD–BRD (human) [2] = molecular target: BAZ2B PHD–BRD (human) (UniProt Q9UIF8); assay: NMR titration; H3K14ac titrated into 15N-labelled PHD–BRD at peptide/protein ratios 0.5, 1, 1.5, 2 and 4; Kd estimated apart from BRD and from PHD residues
H3T6C (1-21) = assay: ITC; iTC200, 25 °C, stirring 800 rpm; sample 150–260 μM, titrant 1.5–4 mM; one-site binding model; the figure legends on these data give mean ± S.D. (n = 4)
H3K4me1 (1-21) = assay: as above
H3K4me3 (1-21) = assay: as above
H3K14ac T6C = assay: as above
H3K4me2 (1-21) = assay: as above
H3K4me3K14ac = assay: as above
H3K4me1K14ac = assay: as above
H3K4me2K14ac = assay: as above

BAZ2B PHD domain (human), sequence (Q9UIF8 whole entry, the tested form may be a part): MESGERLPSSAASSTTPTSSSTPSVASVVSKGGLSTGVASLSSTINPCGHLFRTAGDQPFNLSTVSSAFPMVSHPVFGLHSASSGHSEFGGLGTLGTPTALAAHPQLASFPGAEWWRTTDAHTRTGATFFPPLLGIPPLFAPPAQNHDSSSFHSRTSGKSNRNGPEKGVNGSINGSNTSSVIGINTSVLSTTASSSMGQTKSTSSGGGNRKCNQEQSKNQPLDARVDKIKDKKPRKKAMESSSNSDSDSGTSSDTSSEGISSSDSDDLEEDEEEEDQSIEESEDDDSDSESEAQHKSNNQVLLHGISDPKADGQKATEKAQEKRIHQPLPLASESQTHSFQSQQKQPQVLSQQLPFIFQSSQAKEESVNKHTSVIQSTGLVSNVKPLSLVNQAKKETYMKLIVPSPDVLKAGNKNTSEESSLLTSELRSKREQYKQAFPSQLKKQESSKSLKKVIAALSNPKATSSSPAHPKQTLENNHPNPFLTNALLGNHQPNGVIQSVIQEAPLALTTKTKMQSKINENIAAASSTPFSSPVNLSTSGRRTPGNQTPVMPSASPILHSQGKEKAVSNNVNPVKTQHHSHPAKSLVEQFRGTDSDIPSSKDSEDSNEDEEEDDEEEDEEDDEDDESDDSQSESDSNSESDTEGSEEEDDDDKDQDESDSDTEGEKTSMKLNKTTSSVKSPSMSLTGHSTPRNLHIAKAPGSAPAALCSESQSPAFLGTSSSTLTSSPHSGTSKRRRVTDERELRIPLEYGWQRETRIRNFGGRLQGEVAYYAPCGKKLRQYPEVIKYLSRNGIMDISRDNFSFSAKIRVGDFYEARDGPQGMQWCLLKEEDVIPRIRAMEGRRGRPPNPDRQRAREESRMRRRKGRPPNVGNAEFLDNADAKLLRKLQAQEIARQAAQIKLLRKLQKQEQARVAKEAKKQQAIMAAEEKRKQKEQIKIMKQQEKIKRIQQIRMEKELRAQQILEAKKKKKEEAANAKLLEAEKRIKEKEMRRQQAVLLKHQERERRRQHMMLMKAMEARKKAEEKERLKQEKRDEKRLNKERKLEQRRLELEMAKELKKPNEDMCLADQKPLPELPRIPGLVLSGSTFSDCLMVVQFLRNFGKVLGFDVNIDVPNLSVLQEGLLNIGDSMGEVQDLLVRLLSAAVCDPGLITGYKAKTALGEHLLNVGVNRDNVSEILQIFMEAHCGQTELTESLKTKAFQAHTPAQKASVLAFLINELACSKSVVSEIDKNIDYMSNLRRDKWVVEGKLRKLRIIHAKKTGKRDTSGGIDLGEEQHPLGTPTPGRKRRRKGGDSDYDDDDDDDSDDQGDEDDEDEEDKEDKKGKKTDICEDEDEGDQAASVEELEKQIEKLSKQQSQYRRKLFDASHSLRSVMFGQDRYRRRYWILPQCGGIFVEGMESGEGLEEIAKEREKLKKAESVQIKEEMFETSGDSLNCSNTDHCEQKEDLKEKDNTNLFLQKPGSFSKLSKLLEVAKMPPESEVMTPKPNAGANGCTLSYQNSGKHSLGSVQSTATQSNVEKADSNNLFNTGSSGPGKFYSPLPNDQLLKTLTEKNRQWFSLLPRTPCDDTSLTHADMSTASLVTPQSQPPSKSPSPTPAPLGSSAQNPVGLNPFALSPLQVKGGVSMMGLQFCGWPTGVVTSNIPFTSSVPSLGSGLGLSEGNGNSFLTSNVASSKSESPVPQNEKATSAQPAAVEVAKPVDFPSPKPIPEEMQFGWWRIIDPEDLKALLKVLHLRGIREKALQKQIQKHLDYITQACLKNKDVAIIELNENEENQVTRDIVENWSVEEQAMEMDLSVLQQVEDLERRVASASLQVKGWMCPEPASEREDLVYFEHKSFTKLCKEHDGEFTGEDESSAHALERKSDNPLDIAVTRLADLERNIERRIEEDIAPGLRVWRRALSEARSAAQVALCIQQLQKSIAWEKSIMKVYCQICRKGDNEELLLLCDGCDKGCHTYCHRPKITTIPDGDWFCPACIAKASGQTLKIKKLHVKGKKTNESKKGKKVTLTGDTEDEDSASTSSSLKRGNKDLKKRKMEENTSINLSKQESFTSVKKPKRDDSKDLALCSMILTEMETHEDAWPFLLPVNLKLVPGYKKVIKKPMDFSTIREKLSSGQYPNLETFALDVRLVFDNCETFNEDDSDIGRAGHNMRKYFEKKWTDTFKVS
BAZ2B PHD-BRD WT, sequence (Q9UIF8 whole entry, the tested form may be a part): as above
BAZ2B PHD–BRD (human), sequence (Q9UIF8 whole entry, the tested form may be a part): as above
H3T6C (1-21), sequence (peptide, as listed by the source T6C (stands in the printed letters)): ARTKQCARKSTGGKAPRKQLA

Substance | Kd (BAZ2B PHD–BRD (human) [1]) [µM] | Kd (BAZ2B PHD domain (human)) [µM] | Kd (H3T6C (1-21)) [µM] | stoichiometry N (H3T6C (1-21)) | Kd (H3K4me1 (1-21)) [µM] | stoichiometry N (H3K4me1 (1-21)) | Kd (H3K4me3 (1-21)) [µM] | stoichiometry N (H3K4me3 (1-21)) | Kd (H3K14ac T6C) [µM] | stoichiometry N (H3K14ac T6C) | Kd (H3K4me2 (1-21)) [µM] | stoichiometry N (H3K4me2 (1-21)) | other results
histone H3(1–21aa) peptide, unmodified (from UniProt P68431 2-22) | 54 | 5.78 | – | – | – | – | – | – | – | – | – | – | –
histone H3(1–10aa) peptide (from UniProt P68431 2-11) | 115 | 23.1 | – | – | – | – | – | – | – | – | – | – | –
histone H3(1–21aa)K14ac peptide (from UniProt P68431 2-22) | – | – | – | – | – | – | – | – | – | – | – | – | Kd estimated from BRD residues (BAZ2B PHD–BRD (human) [2]): > 8 µM; Kd estimated from PHD residues (BAZ2B PHD–BRD (human) [2]): > 190 µM
histone H3(11–21aa) peptide (from UniProt P68431 12-22) | > 2000 | > 4000 | – | – | – | – | – | – | – | – | – | – | –
BAZ2B PHD WT (from UniProt Q9UIF8 1-2168) (domain or fragment) | – | – | 33.2 | 0.74 | 10.2 | 0.82 | 23.9 | 0.73 | 27 | 4.86 | 12.4 | 0.71 | –
BAZ2B PHD-BRD WT (from UniProt Q9UIF8 1-2168) (domain or fragment) | – | – | 148 | 1.59 | 88.4 | 1.94 | 130 | 1.89 | 50.4 | 2.92 | 123 | 1.76 | Kd (H3K4me3K14ac): 6.99 µM; stoichiometry N (H3K4me3K14ac): 0.54; Kd (H3K4me1K14ac): 26.9 µM; stoichiometry N (H3K4me1K14ac): 0.54; Kd (H3K4me2K14ac): 18.9 µM; stoichiometry N (H3K4me2K14ac): 0.45
